The values that follow are results of earlier work, collected in PMC6640714.

The target of this data set is FcγRIa (Homo sapiens) (UniProt P12314). The experiment in a line: given as Ka.
Chain of FcγRIa (Homo sapiens) (P12314 16-374): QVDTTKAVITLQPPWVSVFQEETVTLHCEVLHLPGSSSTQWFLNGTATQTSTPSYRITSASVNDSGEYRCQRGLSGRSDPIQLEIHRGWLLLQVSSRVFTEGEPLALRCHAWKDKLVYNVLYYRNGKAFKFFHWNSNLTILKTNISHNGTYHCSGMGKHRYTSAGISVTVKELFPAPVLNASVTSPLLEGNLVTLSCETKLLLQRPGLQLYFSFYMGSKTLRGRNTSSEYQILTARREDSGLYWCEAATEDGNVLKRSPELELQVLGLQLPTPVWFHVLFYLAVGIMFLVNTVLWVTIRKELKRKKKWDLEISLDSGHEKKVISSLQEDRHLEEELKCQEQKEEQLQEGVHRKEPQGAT

Chain of IgG4 (P01861 whole entry): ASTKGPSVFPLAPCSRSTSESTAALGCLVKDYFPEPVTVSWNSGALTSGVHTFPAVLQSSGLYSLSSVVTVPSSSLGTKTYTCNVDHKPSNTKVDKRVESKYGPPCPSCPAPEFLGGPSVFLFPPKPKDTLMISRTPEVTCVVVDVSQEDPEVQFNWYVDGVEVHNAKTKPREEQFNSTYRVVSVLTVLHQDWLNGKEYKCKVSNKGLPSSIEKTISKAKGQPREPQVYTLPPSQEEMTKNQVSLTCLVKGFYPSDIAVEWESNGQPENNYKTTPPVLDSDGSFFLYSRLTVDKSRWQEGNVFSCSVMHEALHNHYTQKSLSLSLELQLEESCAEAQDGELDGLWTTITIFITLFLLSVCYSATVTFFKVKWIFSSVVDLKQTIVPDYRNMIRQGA

As a reminder, the Kd is a measure of binding affinity in units of concentration. IgG4 (from UniProt P01861): the Kd was 29.4 nM.
